Biological target: T1, POPDC1-Myc (Popeye domain-containing protein 1, Myc-tagged) (mouse, UniProt Q9ES83 1-358)
T1 sequence (looked up): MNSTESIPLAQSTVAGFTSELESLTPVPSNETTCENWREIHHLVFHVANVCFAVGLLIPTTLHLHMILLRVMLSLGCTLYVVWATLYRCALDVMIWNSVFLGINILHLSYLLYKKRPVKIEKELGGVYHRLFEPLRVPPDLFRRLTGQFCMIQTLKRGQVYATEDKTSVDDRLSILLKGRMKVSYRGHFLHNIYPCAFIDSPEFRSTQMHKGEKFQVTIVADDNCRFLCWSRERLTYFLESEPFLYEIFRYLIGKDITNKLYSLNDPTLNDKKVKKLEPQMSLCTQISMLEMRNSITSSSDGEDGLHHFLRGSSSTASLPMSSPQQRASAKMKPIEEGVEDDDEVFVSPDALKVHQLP
Experiment: co-IP

fold Ca2+/calmodulin-stimulated AC activity over IgG controls: 1.59 fold
B1: AC1 (adenylyl cyclase type 1), non-tagged (enzyme)
chain: not shown

Reference: article doi:10.1101/2021.12.21.473719 (bioRxiv, 2021)
